From publication PMC4552487 (2015)
Blank lines part the entries; values can stand above or below the binder they belong to.

Target: T1, Parkin (80-465)-Biotin, wild type (UniProt O60260 80-465, biotin (position not given))
T1 chain: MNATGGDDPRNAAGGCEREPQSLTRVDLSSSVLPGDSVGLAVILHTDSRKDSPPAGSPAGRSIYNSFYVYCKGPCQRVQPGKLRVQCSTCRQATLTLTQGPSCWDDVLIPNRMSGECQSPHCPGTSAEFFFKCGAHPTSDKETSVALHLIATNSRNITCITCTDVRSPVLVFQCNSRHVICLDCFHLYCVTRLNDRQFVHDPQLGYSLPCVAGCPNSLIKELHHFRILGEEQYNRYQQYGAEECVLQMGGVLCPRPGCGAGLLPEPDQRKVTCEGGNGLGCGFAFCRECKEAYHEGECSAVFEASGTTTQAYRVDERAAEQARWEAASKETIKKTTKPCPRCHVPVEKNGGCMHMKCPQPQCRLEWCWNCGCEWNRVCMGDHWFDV
Assay: competition with GST-Ubl (AlphaScreen)

IC50: 134 nM
B1: Ubl (protein)
chain: MIVFVRFNSSHGFPVEVDSDTSIFQLKEVVAKRQGVPADQLRVIFAGKELRNDWTVQNCDLDQQSIVHIVQRPWRK

IC50: > 2530 nM
B2: Ser65-phosphorylated Parkin Ubl domain (residues 1-76) (Ubl^Phospho-Ser65) (domain or fragment)
chain: B1 chain
modifications: phosphoserine at 65
